According to patent EP0842948B1 (MOCHIDA PHARMACEUTICAL CO., LTD., dated 2009):
“And” between values parts separate entries of the source, which are not always exact repeats. Equal values may be shown once.

Legend:
[1] = target: extracellular domain of the Fas ligand derived from COS-1 cell (human); assay: cell-based or functional assay
[2] = target: T1, human Fas ligand expressed on 1A12 cells (human, UniProt P48023 1-281); assay: competitive binding against 125I-labelled mouse F919 on 1A12 cells
T1 construct: whole, on cells; also called Fas ligand antigen on 1A12 transfectant cells
T1 sequence (looked up): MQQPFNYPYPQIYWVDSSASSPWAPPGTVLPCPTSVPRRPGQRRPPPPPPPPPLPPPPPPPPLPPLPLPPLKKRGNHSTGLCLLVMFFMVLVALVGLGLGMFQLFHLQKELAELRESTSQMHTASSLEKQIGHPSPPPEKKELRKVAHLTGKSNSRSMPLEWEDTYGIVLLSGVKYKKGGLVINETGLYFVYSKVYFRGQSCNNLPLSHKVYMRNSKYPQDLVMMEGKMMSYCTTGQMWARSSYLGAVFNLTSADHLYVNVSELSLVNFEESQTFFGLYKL

apoptosis-suppression activity (fold against F883-1-1) [1]: 100
Ka [2]: 3e+08 M⁻¹ and 4e+08 M⁻¹
B1: mouse monoclonal antibody F919-9-18 (antibody, V domains shown)
VH: QIQLVQSGPELKKPGETVKISCKASGYTFTEYPMHWVKQAPGKGFKWMGMIYTDTGEPSYAEEFKGRFAFSLETSASTAYLQINFLKNEDTATYFCVRFYWDYFDYWGQGTTLTVSS
VL: DIQMTQTTSSLSASLGDRVTISCRASQDISNYLNWYQQKPDGTVKLLIYYTSRLHSGVPSRFSGSGSGTNYSLTISNLEQGDIATYFCQQGSTLPWTFGGGTKLEIK
